Article PMC6343935

Target: Taggert virus (TAGV) viral ovarian tumor domain protease (vOTU) (Taggert virus (TAGV))
Test: ITC

## ubiquitin (Ub), wild type (from UniProt P0CG48 1-76) (natural protein)
  dH: -4.68 kcal/mol
  stoichiometry N: 1.34 sites
